Results on seven molecules are retold here after PMC9618391 (2022).

To fix the notation:
T1: μ1A (AP1M1) expressed from cDNA in COS-7 cells, Q9BXS5
T1 chain: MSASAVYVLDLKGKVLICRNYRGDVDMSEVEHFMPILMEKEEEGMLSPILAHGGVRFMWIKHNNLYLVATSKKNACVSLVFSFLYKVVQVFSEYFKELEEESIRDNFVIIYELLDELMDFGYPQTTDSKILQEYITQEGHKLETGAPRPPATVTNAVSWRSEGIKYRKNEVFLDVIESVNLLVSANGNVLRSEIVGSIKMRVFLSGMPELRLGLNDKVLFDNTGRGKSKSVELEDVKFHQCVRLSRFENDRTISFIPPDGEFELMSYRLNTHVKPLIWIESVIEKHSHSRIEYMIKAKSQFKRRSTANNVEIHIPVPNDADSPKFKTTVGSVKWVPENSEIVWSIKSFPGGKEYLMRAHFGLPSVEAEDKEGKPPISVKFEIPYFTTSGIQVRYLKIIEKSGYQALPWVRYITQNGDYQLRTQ

B1: wild-type human sodium/iodide symporter (hNIS), Q92911 L562A; L563A (protein)
chain: MEAVETGERPTFGAWDYGVFALMLLVSTGIGLWVGLARGGQRSAEDFFTGGRRLAALPVGLSLSASFMSAVQVLGVPSEAYRYGLKFLWMCLGQLLNSVLTALLFMPVFYRLGLTSTYEYLEMRFSRAVRLCGTLQYIVATMLYTGIVIYAPALILNQVTGLDIWASLLSTGIICTFYTAVGGMKAVVWTDVFQVVVMLSGFWVVLARGVMLVGGPRQVLTLAQNHSRINLMDFNPDPRSRYTFWTFVVGGTLVWLSMYGVNQAQVQRYVACRTEKQAKLALLINQVGLFLIVSSAACCGIVMFVFYTDCDPLLLGRISAPDQYMPLLVLDIFEDLPGVPGLFLACAYSGTLSTASTSINAMAAVTVEDLIKPRLRSLAPRKLVIISKGLSLIYGSACLTVAALSSLLGGGVLQGSFTVMGVISGPLLGAFILGMFLPACNTPGVLAGLGAGLALSLWVALGATLYPPSEQTMRVLPSSAARCVALSVNASGLLDPALLPANDSSRAPSSGMDASRPALADSFYAISYLYYGALGTLTTVLCGALISCLTGPTKRSTLAPGAAWWDLARQTASVAPKEEVAILDDNLVKGPEELPTGNKKPPGFLPTNEDRLFFLGQKELEGAGSWTPCVGHDGGRDQQETNL
B2: wild-type human sodium/iodide symporter (hNIS), Q92911 Y118A (protein)
chain: MEAVETGERPTFGAWDYGVFALMLLVSTGIGLWVGLARGGQRSAEDFFTGGRRLAALPVGLSLSASFMSAVQVLGVPSEAYRYGLKFLWMCLGQLLNSVLTALLFMPVFYRLGLTSTAEYLEMRFSRAVRLCGTLQYIVATMLYTGIVIYAPALILNQVTGLDIWASLLSTGIICTFYTAVGGMKAVVWTDVFQVVVMLSGFWVVLARGVMLVGGPRQVLTLAQNHSRINLMDFNPDPRSRYTFWTFVVGGTLVWLSMYGVNQAQVQRYVACRTEKQAKLALLINQVGLFLIVSSAACCGIVMFVFYTDCDPLLLGRISAPDQYMPLLVLDIFEDLPGVPGLFLACAYSGTLSTASTSINAMAAVTVEDLIKPRLRSLAPRKLVIISKGLSLIYGSACLTVAALSSLLGGGVLQGSFTVMGVISGPLLGAFILGMFLPACNTPGVLAGLGAGLALSLWVALGATLYPPSEQTMRVLPSSAARCVALSVNASGLLDPALLPANDSSRAPSSGMDASRPALADSFYAISYLYYGALGTLTTVLCGALISCLTGPTKRSTLAPGLLWWDLARQTASVAPKEEVAILDDNLVKGPEELPTGNKKPPGFLPTNEDRLFFLGQKELEGAGSWTPCVGHDGGRDQQETNL
B3: wild-type human sodium/iodide symporter (hNIS), Q92911 Y120A (protein)
chain: MEAVETGERPTFGAWDYGVFALMLLVSTGIGLWVGLARGGQRSAEDFFTGGRRLAALPVGLSLSASFMSAVQVLGVPSEAYRYGLKFLWMCLGQLLNSVLTALLFMPVFYRLGLTSTYEALEMRFSRAVRLCGTLQYIVATMLYTGIVIYAPALILNQVTGLDIWASLLSTGIICTFYTAVGGMKAVVWTDVFQVVVMLSGFWVVLARGVMLVGGPRQVLTLAQNHSRINLMDFNPDPRSRYTFWTFVVGGTLVWLSMYGVNQAQVQRYVACRTEKQAKLALLINQVGLFLIVSSAACCGIVMFVFYTDCDPLLLGRISAPDQYMPLLVLDIFEDLPGVPGLFLACAYSGTLSTASTSINAMAAVTVEDLIKPRLRSLAPRKLVIISKGLSLIYGSACLTVAALSSLLGGGVLQGSFTVMGVISGPLLGAFILGMFLPACNTPGVLAGLGAGLALSLWVALGATLYPPSEQTMRVLPSSAARCVALSVNASGLLDPALLPANDSSRAPSSGMDASRPALADSFYAISYLYYGALGTLTTVLCGALISCLTGPTKRSTLAPGLLWWDLARQTASVAPKEEVAILDDNLVKGPEELPTGNKKPPGFLPTNEDRLFFLGQKELEGAGSWTPCVGHDGGRDQQETNL
B4: wild-type human sodium/iodide symporter (hNIS), Q92911 L587A (protein)
chain: MEAVETGERPTFGAWDYGVFALMLLVSTGIGLWVGLARGGQRSAEDFFTGGRRLAALPVGLSLSASFMSAVQVLGVPSEAYRYGLKFLWMCLGQLLNSVLTALLFMPVFYRLGLTSTYEYLEMRFSRAVRLCGTLQYIVATMLYTGIVIYAPALILNQVTGLDIWASLLSTGIICTFYTAVGGMKAVVWTDVFQVVVMLSGFWVVLARGVMLVGGPRQVLTLAQNHSRINLMDFNPDPRSRYTFWTFVVGGTLVWLSMYGVNQAQVQRYVACRTEKQAKLALLINQVGLFLIVSSAACCGIVMFVFYTDCDPLLLGRISAPDQYMPLLVLDIFEDLPGVPGLFLACAYSGTLSTASTSINAMAAVTVEDLIKPRLRSLAPRKLVIISKGLSLIYGSACLTVAALSSLLGGGVLQGSFTVMGVISGPLLGAFILGMFLPACNTPGVLAGLGAGLALSLWVALGATLYPPSEQTMRVLPSSAARCVALSVNASGLLDPALLPANDSSRAPSSGMDASRPALADSFYAISYLYYGALGTLTTVLCGALISCLTGPTKRSTLAPGLLWWDLARQTASVAPKEEVAILDDNAVKGPEELPTGNKKPPGFLPTNEDRLFFLGQKELEGAGSWTPCVGHDGGRDQQETNL
B5: wild-type human sodium/iodide symporter (hNIS), Q92911 L583A (protein)
chain: MEAVETGERPTFGAWDYGVFALMLLVSTGIGLWVGLARGGQRSAEDFFTGGRRLAALPVGLSLSASFMSAVQVLGVPSEAYRYGLKFLWMCLGQLLNSVLTALLFMPVFYRLGLTSTYEYLEMRFSRAVRLCGTLQYIVATMLYTGIVIYAPALILNQVTGLDIWASLLSTGIICTFYTAVGGMKAVVWTDVFQVVVMLSGFWVVLARGVMLVGGPRQVLTLAQNHSRINLMDFNPDPRSRYTFWTFVVGGTLVWLSMYGVNQAQVQRYVACRTEKQAKLALLINQVGLFLIVSSAACCGIVMFVFYTDCDPLLLGRISAPDQYMPLLVLDIFEDLPGVPGLFLACAYSGTLSTASTSINAMAAVTVEDLIKPRLRSLAPRKLVIISKGLSLIYGSACLTVAALSSLLGGGVLQGSFTVMGVISGPLLGAFILGMFLPACNTPGVLAGLGAGLALSLWVALGATLYPPSEQTMRVLPSSAARCVALSVNASGLLDPALLPANDSSRAPSSGMDASRPALADSFYAISYLYYGALGTLTTVLCGALISCLTGPTKRSTLAPGLLWWDLARQTASVAPKEEVAIADDNLVKGPEELPTGNKKPPGFLPTNEDRLFFLGQKELEGAGSWTPCVGHDGGRDQQETNL
B6: wild-type human sodium/iodide symporter (hNIS), Q92911 L121A (protein)
chain: MEAVETGERPTFGAWDYGVFALMLLVSTGIGLWVGLARGGQRSAEDFFTGGRRLAALPVGLSLSASFMSAVQVLGVPSEAYRYGLKFLWMCLGQLLNSVLTALLFMPVFYRLGLTSTYEYAEMRFSRAVRLCGTLQYIVATMLYTGIVIYAPALILNQVTGLDIWASLLSTGIICTFYTAVGGMKAVVWTDVFQVVVMLSGFWVVLARGVMLVGGPRQVLTLAQNHSRINLMDFNPDPRSRYTFWTFVVGGTLVWLSMYGVNQAQVQRYVACRTEKQAKLALLINQVGLFLIVSSAACCGIVMFVFYTDCDPLLLGRISAPDQYMPLLVLDIFEDLPGVPGLFLACAYSGTLSTASTSINAMAAVTVEDLIKPRLRSLAPRKLVIISKGLSLIYGSACLTVAALSSLLGGGVLQGSFTVMGVISGPLLGAFILGMFLPACNTPGVLAGLGAGLALSLWVALGATLYPPSEQTMRVLPSSAARCVALSVNASGLLDPALLPANDSSRAPSSGMDASRPALADSFYAISYLYYGALGTLTTVLCGALISCLTGPTKRSTLAPGLLWWDLARQTASVAPKEEVAILDDNLVKGPEELPTGNKKPPGFLPTNEDRLFFLGQKELEGAGSWTPCVGHDGGRDQQETNL
B7: wild-type human sodium/iodide symporter (hNIS), Q92911 L594A (protein)
chain: MEAVETGERPTFGAWDYGVFALMLLVSTGIGLWVGLARGGQRSAEDFFTGGRRLAALPVGLSLSASFMSAVQVLGVPSEAYRYGLKFLWMCLGQLLNSVLTALLFMPVFYRLGLTSTYEYLEMRFSRAVRLCGTLQYIVATMLYTGIVIYAPALILNQVTGLDIWASLLSTGIICTFYTAVGGMKAVVWTDVFQVVVMLSGFWVVLARGVMLVGGPRQVLTLAQNHSRINLMDFNPDPRSRYTFWTFVVGGTLVWLSMYGVNQAQVQRYVACRTEKQAKLALLINQVGLFLIVSSAACCGIVMFVFYTDCDPLLLGRISAPDQYMPLLVLDIFEDLPGVPGLFLACAYSGTLSTASTSINAMAAVTVEDLIKPRLRSLAPRKLVIISKGLSLIYGSACLTVAALSSLLGGGVLQGSFTVMGVISGPLLGAFILGMFLPACNTPGVLAGLGAGLALSLWVALGATLYPPSEQTMRVLPSSAARCVALSVNASGLLDPALLPANDSSRAPSSGMDASRPALADSFYAISYLYYGALGTLTTVLCGALISCLTGPTKRSTLAPGLLWWDLARQTASVAPKEEVAILDDNLVKGPEEAPTGNKKPPGFLPTNEDRLFFLGQKELEGAGSWTPCVGHDGGRDQQETNL

In the experiment the target is T1, μ1A (AP1M1) expressed from cDNA in …. Nature of the experiment: co-immunoprecipitation with Western blot quantification. The following applies: chain shown with the change; COS-7 cells cotransfected with hNIS and μ1A; IP α-μ1A, WB α-hNIS; parent: est. 100; read off a plot. A general note: Immunoblotting shows a protein as a band on a membrane.
Regarding B1, the percent of parent (% Relative to hNIS WT) was 9. The same measure for B2: 80; for B3: 65. The same measure for B4: 100; for B5: 60; for B6: 17. The same measure for B7: 100.
